We go through three molecules from US7935343B2.

For assay [1], the target named is T1, murine IL-13 (murine).
T1 sequence: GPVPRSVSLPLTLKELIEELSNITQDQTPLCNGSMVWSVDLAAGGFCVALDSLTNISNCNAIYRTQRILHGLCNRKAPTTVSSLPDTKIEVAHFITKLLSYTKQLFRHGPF

Assay [2] has as its target T1, murine IL-13 (murine). This is another data set of the same source.

Chain of human IL-13 (human) (chain, as listed by the source): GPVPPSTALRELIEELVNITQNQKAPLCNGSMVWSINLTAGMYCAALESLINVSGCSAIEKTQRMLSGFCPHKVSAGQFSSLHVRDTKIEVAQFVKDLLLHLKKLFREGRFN

B1: BAK278D6 scFv (scFv, V domains shown)
VH: EVQLVQSGAEVKKPGASVKVSCKASGYTFRNYGLSWVRQAPGQGLEWMGWISANNGDTNYGQEFQGRITMTTETSTNTAHMELRSLRSDDTAVYYCVRDSSSNWARWFFDLWGKGTMVTVSS
VL: SYVLTQPPSVSVAPGQTARIPCGGNNIGSKLVHWYQQKPGQAPVLVVYDDGDRPSGIPERFSGSNSGNTATLTISRIDAGDEADYYCQVWDTGSDPVVFGGGTKLTVL
As for B1, the IC50, TF-1 proliferation (Mean TF1) with human IL-13 (human) was found to be 44 nM.

B2: BAK209B11 scFv (scFv, V domains shown)
VH: VQLQESGGGGLVQPGGSLRLSCAASGFTFSSYGMSWVRQAPGKGLEWVSSISASGDSTFYADSVKGRFTISRDNNKNMVFLQVNSLRADDTAVYFCAKDWSQWLVGDAFDVWGRGTTVTVSS
VL: DIQLTQSPSTLSASVGDRVTITCRASQSVSLWVAWYQQRPGKAPKLLIYDGSTLQSGVPARFSGSGSGTEFTLTISSLQPDDFATYYCQQYKTFSTFGQGTKVEIKR
Turning to B2, the IC50, TF-1 cell proliferation with murine IL-13 (murine) [1] stood at 185 nM.

B3: BAK209B11 human IgG4 (antibody, V domains shown)
VH: VQLQESGGGGLVQPGGSLRLSCAASGFTFSSYGMSWVRQAPGKGLEWVSSISASGDSTFYADSVKGRFTISRDNNKNMVFLQVNSLRADDTAVYFCAKDWSQWLVGDAFDVWGRGTTVTVSS
VL: DIQLTQSPSTLSASVGDRVTITCRASQSVSLWVAWYQQRPGKAPKLLIYDGSTLQSGVPARFSGSGSGTEFTLTISSLQPDDFATYYCQQYKTFSTFGQGTKVEIKR
Turning to B3, the IC50, B9 cell proliferation in the assay with murine IL-13 (murine) [2] stood at 0.776 nM.
